Data on six molecules can be found in PMC5859912 (ACS Chemical Biology, 2018).

The test system of one experiment is PCY1. Type of experiment: biochemical, Saponaria vaccaria. To be noted: LC/MS (ion count); 30 °C; pH 8.5.
Experiment [1] deals with PCY1:S562A (Saponaria vaccaria) (UniProt R4P353). In words: ITC. In general terms: Isothermal titration calorimetry measures the heat released or taken up as one component is titrated into another.
In a further experiment the target is T1, PCY1:S562A (Saponaria vaccaria, UniProt R4P353 1-724, S562A).
T1 sequence: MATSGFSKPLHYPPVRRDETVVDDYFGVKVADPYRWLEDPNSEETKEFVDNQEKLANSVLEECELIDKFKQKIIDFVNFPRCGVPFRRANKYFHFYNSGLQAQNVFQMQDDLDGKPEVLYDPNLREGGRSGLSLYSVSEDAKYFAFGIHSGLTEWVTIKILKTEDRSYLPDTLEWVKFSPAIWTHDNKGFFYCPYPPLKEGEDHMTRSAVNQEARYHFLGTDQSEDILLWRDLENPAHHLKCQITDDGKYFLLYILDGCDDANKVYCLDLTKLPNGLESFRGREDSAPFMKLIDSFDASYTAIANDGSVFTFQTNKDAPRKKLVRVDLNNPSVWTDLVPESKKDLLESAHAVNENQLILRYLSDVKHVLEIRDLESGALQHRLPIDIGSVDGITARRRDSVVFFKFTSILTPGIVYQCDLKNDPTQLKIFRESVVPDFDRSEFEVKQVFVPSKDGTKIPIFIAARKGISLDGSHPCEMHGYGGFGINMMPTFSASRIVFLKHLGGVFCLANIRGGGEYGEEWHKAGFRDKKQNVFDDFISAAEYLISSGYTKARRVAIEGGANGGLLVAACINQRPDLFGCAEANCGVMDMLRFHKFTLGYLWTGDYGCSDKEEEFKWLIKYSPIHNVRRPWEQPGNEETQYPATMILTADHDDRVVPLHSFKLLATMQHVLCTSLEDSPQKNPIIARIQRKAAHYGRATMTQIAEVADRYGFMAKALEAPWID
In words: ITC.

Take FSASYSSKP FQA: the kcat/Km with PCY1 is 1200 s^–1 M^–1. presegetalin A1 (peptide) returned a dissociation constant (Kd) in experiment [1] of 173 nM. This counts as sub-micromolar. On the same count and under the same terms, next, presegetalin B1 (peptide): 238 nM; presegetalin D1 (peptide): 250 nM. Still for that read-out and setting: the same measure for presegetalin F1 (peptide): 136 nM.

B1: DNASAPV (peptide)
peptide: DNASAPV
In the experiment with PCY1:S562A, B1 yielded a dissociation constant (Kd) of 9580 ± 580 nM.

A word on the Kd: it is the concentration at which binding is half-saturated. A lower Kd goes with tighter binding.
